In the nanobody polyreactivity screen of Harvey et al. (2022):

Assay: yeast display, Sf9 membrane polyspecificity reagent, FACS + sequencing; frameworks hold sequencing errors
Outline: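 Nanobodies came from a synthetic yeast display library in Saccharomyces cerevisiae BJ5465, induced with galactose for 36–48 hours and stained for 1 hour at 4 °C with 10% biotinylated, detergent-solubilized Sf9 membrane reagent. Cells were enriched on streptavidin microbeads and then FACS-sorted, with low and high (top ~1%) gates set on anti-HA fluorescence for expression and streptavidin fluorescence for reagent binding. Each polyreactivity label reflects the gate a clone came from. Genes were amplified by colony PCR, sequenced by MiSeq 2 × 250 and filtered by CDR length.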

## QVQLVESGGGLVQAGGSLRLSCAASGGAFRYYTMGWYRPAPGKDRELVASISGGGRTYYADSVKGRFTISRDNAKNSVYLQMNSLKPEDTAVYYCNARNRVYYTMSGFGYLGQGTQVTVSS
  polyreactivity (PSR sort gate): high polyreactivity

## QVQLVESGGGLVQAGGSLRLSCAASGGICRVYAMGWYRQAPGKERELVAAISRSGSSTYYADSVKGRFTISRDNAKNTVYLQMNSLKPEDTAVYYCNAYSQYWLGNNYWGQGTQVTVSS
  polyreactivity (PSR sort gate): high polyreactivity

## QVQLVESGGGLVQAGGSLRLSCAASGGIFAPYAMGWYRQAPGKERELVATISFSGGSTYYADSVKGRFTISRDNAKNTVYLQMNSLKPEDTAVYYCAKRYIYSLLYGLDYWGQGTQVTVSS
  polyreactivity (PSR sort gate): low polyreactivity

## QVQLVESGGGLVQAGGSLRLSCAASGGIFASNAMGWYRQAPGKERELVATITRGGSTNYADSVKGRFTISRDNAKNTVYLQMNSLKPEDTAVYYCAARFYSRAFWTAYYYWGQGTQVTVSS
  polyreactivity (PSR sort gate): high polyreactivity

## QVQLVESGGGLVQAGGSLRLSCAASGGIFAYYAMGWYRQAPGKERELVAAITSRGGRTYYADSVKGRFTISRDNAKNTVYLQMNSLKPEDTAVYYCAAEYINSNYQWYYYWGQGTQVTVSS
  polyreactivity (PSR sort gate): high polyreactivity

## QVQLVESGGGLVQAGGSLRLSCAASGGIFDRYAMGWSRQAPGKERELVAVISGSVNTYADSVKGRFTISRDNAKNTFYLQMNSLKPEDTAVYYCATQFEGTSGFNYWGQGTQVTVSS
  polyreactivity (PSR sort gate): low polyreactivity

## QVQLVESGGGLVQAGGSLRLSCAASGGIFFPNAIGWYRQAPGKERELVAAISWSAGSTYYADSVKGRFTISRDNAKNTVYLQMNSLKPEDTAVYYCAAAGSNYTVWYGYYYWGQGTQVTVSS
  polyreactivity (PSR sort gate): low polyreactivity

## QVQLVESGGGLVQAGGSLRLSCAASGGIFFYYVMGWYRQAPGKERELVAAITSGGSTYYADSVKGRFTISRDNAKNTVYLQMNSLKPEDTAVYSCNGRDVVDYSVWSRYAYDYWGQGTQVTVSS
  polyreactivity (PSR sort gate): low polyreactivity

## QVQLVESGGGLVQAGGSLRLSCAASGGIFGANAMGWYRQAPGKERELVAAITWRGGSTYYADSVKGRFTISRDNAKNTVYLQMNSLKPEDTAVYYCAKSFVRYKGRYYWGQGTQVTVSS
  polyreactivity (PSR sort gate): high polyreactivity

## QVQLVESGGGLVQAGGSLRLSCAASGGIFGAYAMGWYRQAPGKERELVAASDLTDGDTYYADSVKGRFTSSRDNAKNTVYLQMNSLKPEATAVYYCAAEALYWVVDALDYEGDYWGQGTQVTVSS
  polyreactivity (PSR sort gate): high polyreactivity

## QVQLVESGGGLVQAGGSLRLSCAASGGIFGYYVMGWYRQAPGKERELVAVITRGGSTNYADSVKGRFTISRDNAKNTVYLQMNSLKPEDTAVYYFAKDVPYRRVRSEYWGQGTQVTVSS
  polyreactivity (PSR sort gate): low polyreactivity

## QVQLVESGGGLVQAGGSLRLSCAASGGIFHGYVMGWYRQEPGKERELVASIRTRGVRTYYADSVKGRFTISRDNAKNTVYLQMNSLKPEDTAVYYCNARGQVYSTLSSYRYDYWGQGTQVTVSS
  polyreactivity (PSR sort gate): high polyreactivity

## QVQLVESGGGLVQAGGSLRLSCAASGGIFIVNAMGWYRPAPGKERELVAAITLSGGSTYYADSVKGRFTISRDNAKNTVYFQMNSLKPEDTAVYYCNKDYYPGSYDYWGQGTQVTVSS
  polyreactivity (PSR sort gate): low polyreactivity

## QVQLVESGGGLVQAGGSLRLSCAASGGIFKRNTMGWYRQAPGKERELVAGISWTGGRTYYADSVKGRFTISSDNAKNNVYLPPNSLKPEDTAVYYCAAKPLQGVRRVEYWGQGTQVTVSS
  polyreactivity (PSR sort gate): high polyreactivity

## QVQLVESGGGLVQAGGSLRLSCAASGGIFLYNAMGWYRQAPGKERELVAAISRSGGGTYYADSVKGRFTISRDNAKNTVYLQMNSLKPEDTAVYYCAKTLRAYSDYYYWGQGTQVTVSS
  polyreactivity (PSR sort gate): high polyreactivity

## QVQLVESGGGLVQAGGSLRLSCAASGGIFNSYTMGWYRQAPGKERELVAAITKRGGSTYYADSVKGRFTISRYNAKNTVYLQMNSLKPEDTAVYYCAAGATVQFDYWGQGTQVTVSS
  polyreactivity (PSR sort gate): high polyreactivity

## QVQLVESGGGLVQAGGSLRLSCAASGGIFPLYAMGWYRQAPGKERELVASITSGGSTYYADSVKGRFTISRDNAKNTVYLQMNSLKPEDTAVYYCAADLRITSYNSWGQGSQVTVSS
  polyreactivity (PSR sort gate): low polyreactivity

## QVQLVESGGGLVQAGGSLRLSCAASGGIFPYYAMGWYRQAPGKERELVADISSGGSTYYADSVKGRFTISRDNAKNSVYLQMNSLKPDDTAVYYCAADAGQYFTYSGDDNHDYWGQGTQVTVSS
  polyreactivity (PSR sort gate): low polyreactivity

## QVQLVESGGGLVQAGGSLRLSCAASGGIFQGYTMGWYRQAPGKERELVAAISRRGGSTYYADSVKGRFTNSRDNAKNTVYLQMNSVKPEDTAVYYCAAGKPLQLPRYDYWGQGTQVTVSS
  polyreactivity (PSR sort gate): low polyreactivity

## QVQLVESGGGLVQAGGSLRLSCAASGGIFRDYAMGWSRQAPGKERELVAAISRSGDSTYYADSVKGRFTISRDNAKNTVYLQMNSLKPEDTAVYSCAADWLWAWHYYGAMDYWGQGTQVTVSS
  polyreactivity (PSR sort gate): high polyreactivity

## QVQLVESGGGLVQAGGSLRLSCAASGGIFRKNAMGWYRQAPGKERELVAAISWDGDNTYADSVKGRFTISRDNAKNTVYLQMNSLKPEDTAVYYCAAETFTDYDYWGQGTQVTVSS
  polyreactivity (PSR sort gate): high polyreactivity

## QVQLVESGGGLVQAGGSLRLSCAASGGIFRKYVMGWYRQAPGKERELVAAISTSGGSTYYADSVKGRFTISRDNAKNSVYLQMNSLKPEDTAVYYCAADILYFYGPRVFEFNYWGQGTQVTVSS
  polyreactivity (PSR sort gate): high polyreactivity

## QVQLVESGGGLVQAGGSLRLSCAASGGIFRWYAMGWYRQAPGKEREFVAVITTDGGSTYYADSVKGRFTISRDNAKNTVYLQMNSLKPEDTAVYYCAADYTLIYDYWGQGTQVTVSS
  polyreactivity (PSR sort gate): low polyreactivity

## QVQLVESGGGLVQAGGSLRLSCAASGGIFSLYAMGWYRQAPGKERELVAAISRRGTITYYADSVKGRFTISRDNAMNTVYLQMNSLKPEDTAVYYCAALWHAVFYADYDYWGQGTQVTVSS
  polyreactivity (PSR sort gate): high polyreactivity

## QVQLVESGGGLVQAGGSLRLSCAASGGIFSRNAMGWYRQAPGKERELVADISRTGDSTYYADSVKGRFTISRDNAKNTVYLQMNSLKPEDTAVYYCNRDAFVGDRTVRVTTTNWGQGTQVTVSS
  polyreactivity (PSR sort gate): low polyreactivity

## QVQLVESGGGLVQAGGSLRLSCAASGGIFSRYAMGWYRQAPGKEREFVAAISFSGASTYYTDSVKGRFTISRDTAKNTVYLQMNSLKPEDTAVYYCAAYWDAEGRRYTRLDYWGQGTQVTVSS
  polyreactivity (PSR sort gate): low polyreactivity

## QVQLVESGGGLVQAGGSLRLSCAASGGIFSRYGLGWYRQAPGKERELVAAITGRGGSTYYADSVKGRFTISRDNAKNTVYLQMNSLKPEDTAVDYCAAKVRSLNWFDYWGQGTQVTVSS
  polyreactivity (PSR sort gate): high polyreactivity

## QVQLVESGGGLVQAGGSLRLSCAASGGIFSSYAMGGYRQAPGKERELVASISRRGTSTYYADSVKGRFTISRDNAKNTVYLQMNSLKPEDTAVYYCAAGTKYTSAVHFYYWGQGTQVTVSS
  polyreactivity (PSR sort gate): high polyreactivity

## QVQLVESGGGLVQAGGSLRLSCAASGGIFSSYAMGWYRQAPGKERELVASISRRGTSTYYADSVKGRFTISRDNAKNTVYLQMNSLKPEDTAVYYCAAGTKYTSAVHFYYWGQGTQVTVSS
  polyreactivity (PSR sort gate): high polyreactivity

## QVQLVESGGGLVQAGGSLRLSCAASGGIFSTYTMRWYRQAPGKERELVAAITTGNSTYYADSVKGRFTISRDNAKNTVYLQMNSLKPEDTAVYYCAAFAASRDYYRRLFHDGYDYWGQGTQVTVSS
  polyreactivity (PSR sort gate): low polyreactivity

## QVQLVESGGGLVQAGGSLRLSCAASGGIFSYYAMGWYRQAPGKEREFVAAIDWGGGSTYYADSVKGRFTISRDNAKNTVYFQMNSLKPEDTAVYYCAAEIYPIGWDDYDYWGQGTQVTVSS
  polyreactivity (PSR sort gate): low polyreactivity

## QVQLVESGGGLVQAGGSLRLSCAASGGIFTGYAMGWYRQAPGKERELVASITISGGRTYYADSVKGRFTISRDNAKNTVYLQINSLKPEDTAVYYCAATIPWYKYRYYYWGQGTQVTVSS
  polyreactivity (PSR sort gate): high polyreactivity

## QVQLVESGGGLVQAGGSLRLSCAASGGIFTYYTMGWYRQAPGKERELVAAISRRVGRTYYADSVKGRFTISRDKANNTVYLQMNSLKPEDTAVYYCNADSRRRLFDYWGQGTQVTVSS
  polyreactivity (PSR sort gate): high polyreactivity

## QVQLVESGGGLVQAGGSLRLSCAASGGIFVGNAMGWYRQAPGKERELVAAISQRGGRTYYADSVKGRFTISRDNAKNTVYLQMNSLKPEDTAVYYCAAGYWLSTDSGYPFQYYLYDYWGQGTQVTVSS
  polyreactivity (PSR sort gate): high polyreactivity

## QVQLVESGGGLVQAGGSLRLSCAASGGIFVRYAMGWYRQAPGKERELVAAISSSGDRTYYADSVKGRFTISRDNAKNTVYLQMHSLKPEDTAVYYCNADRGHDKVDYWGQATQVTVSS
  polyreactivity (PSR sort gate): low polyreactivity

## QVQLVESGGGLVQAGGSLRLSCAASGGIFVSYAMGWYRQAPGKERELVARINAVDGTNYADSVKGRFTISRDNAKYTVYLQMKSVKPEDTAVYYCAVRSPVLASDYGYYFLRDYWGQGTQVTVSS
  polyreactivity (PSR sort gate): low polyreactivity

## QVQLVESGGGLVQAGGSLRLSCAASGGIFVSYAMGWYRQAPGKEWELVAAITSGGGTSYADSVKGRFTISRDNAKNTVYLQMNSLKPEDTAVYYCNADGYLAERFVIRLDEYRHYDYWGQGTQVTVSS
  polyreactivity (PSR sort gate): low polyreactivity

## QVQLVESGGGLVQAGGSLRLSCAASGGIFWSYAMGWYRQAPGKERELVAAISSGTYYADSVKGRFTISRDNAKNTVYLQMNSLIPEDTAVYYWNVQTYNVAWFYRYDMNYWGQGPQVTVSS
  polyreactivity (PSR sort gate): low polyreactivity

## QVQLVESGGGLVQAGGSLRLSCAASGGIFWYNAMGWYRQAPGKERELVADISSSGITYYADSVKGRFTISRDNAKNTVYLQMKSLKPEDTAVYYCAADSTTRPGLRVYDDYDYWGQGTQVTVSS
  polyreactivity (PSR sort gate): low polyreactivity

## QVQLVESGGGLVQAGGSLRLSCAASGGIFWYYAMGWYRQAPGKERELVAAINSGGSTYYADSVKGRFTISRDNAKNTVYLQMNSLNPEDTAVYYCNTRYPFSRYDYWGQGTQVTVSS
  polyreactivity (PSR sort gate): low polyreactivity

## QVQLVESGGGLVQAGGSLRLSCAASGGIFYAYAMGWYRQAPGKERELVAAISISDGDTYYADSVKGRFTISRDNAKNTVYLQMNSLKPEDTAVYYCAAEQEYDLREYDYWGQGTQVTVSS
  polyreactivity (PSR sort gate): high polyreactivity

## QVQLVESGGGLVQAGGSLRLSCAASGGIFYLYAMGWYRQAPGKEREFVAAISSSGGSTNYADSVKGRFTISRDNAKNTVYLQMNSLKPEDTAVYYCAARWLPFLDLGKTYEYWGQGTQVTVSS
  polyreactivity (PSR sort gate): high polyreactivity

## QVQLVESGGGLVQAGGSLRLSCAASGGIFYSNAMGWYRQAPGKERELVAVISGNGGRTYYADSVKGRFTISRDNAKNTVYLQMNSLKPEDTAVYYCATPSYTTAYVEGDYWGQGTQVTVSS
  polyreactivity (PSR sort gate): low polyreactivity
